The text below walks through data of patent US20230357420A1 (VILLARIS THERAPEUTICS, published 2023).

One experiment addresses T1, Human neudesin protein (human, UniProt Q9UMX5 32-172).
T1 construct: also called NENF
Description: BIACORE SPR, Fab at 62.5, 125, 250, 500 and 1000 nM on human neudesin protein; Rmax. (In general: In SPR one partner is held on a chip, and binding of the other changes the refractive index at the surface.)

The target of experiment [1] is T2, Rhesus CD122 His tag (rhesus monkey, UniProt Q38J85 27-240 (cynomolgus entry)).
T2 construct: also called rhCD122; cynomolgus and/or rhesus monkey CD122 His tag; not shown: His tag
T2 sequence: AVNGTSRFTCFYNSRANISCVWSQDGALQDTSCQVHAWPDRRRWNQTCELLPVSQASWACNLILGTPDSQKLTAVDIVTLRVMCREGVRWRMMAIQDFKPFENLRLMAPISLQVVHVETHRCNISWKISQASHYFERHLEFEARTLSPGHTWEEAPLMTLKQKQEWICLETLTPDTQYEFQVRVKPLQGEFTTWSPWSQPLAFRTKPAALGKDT
Description: Biacore SPR, Fab, 1:1 binding.

Experiment [2] concerns the target T3, Human CD122 His tagged (human, UniProt P14784 27-240).
T3 construct: also called hCD122; monomeric antigen; not shown: His tag
T3 sequence: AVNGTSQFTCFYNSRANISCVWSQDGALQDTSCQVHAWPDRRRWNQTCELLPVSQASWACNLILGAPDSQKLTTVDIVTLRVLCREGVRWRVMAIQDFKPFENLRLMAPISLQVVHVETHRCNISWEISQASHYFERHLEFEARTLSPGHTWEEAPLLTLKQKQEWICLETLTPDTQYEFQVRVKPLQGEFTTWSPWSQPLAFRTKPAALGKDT
As to the kind of experiment: Biacore SPR, Fab, 1:1 binding.

For another experiment, the target named is T4, Human CILP2 protein (human, UniProt Q8IUL8 21-1156, limits assumed).
T4 construct: also called cartilage intermediate layer protein 2
T4 sequence (looked up): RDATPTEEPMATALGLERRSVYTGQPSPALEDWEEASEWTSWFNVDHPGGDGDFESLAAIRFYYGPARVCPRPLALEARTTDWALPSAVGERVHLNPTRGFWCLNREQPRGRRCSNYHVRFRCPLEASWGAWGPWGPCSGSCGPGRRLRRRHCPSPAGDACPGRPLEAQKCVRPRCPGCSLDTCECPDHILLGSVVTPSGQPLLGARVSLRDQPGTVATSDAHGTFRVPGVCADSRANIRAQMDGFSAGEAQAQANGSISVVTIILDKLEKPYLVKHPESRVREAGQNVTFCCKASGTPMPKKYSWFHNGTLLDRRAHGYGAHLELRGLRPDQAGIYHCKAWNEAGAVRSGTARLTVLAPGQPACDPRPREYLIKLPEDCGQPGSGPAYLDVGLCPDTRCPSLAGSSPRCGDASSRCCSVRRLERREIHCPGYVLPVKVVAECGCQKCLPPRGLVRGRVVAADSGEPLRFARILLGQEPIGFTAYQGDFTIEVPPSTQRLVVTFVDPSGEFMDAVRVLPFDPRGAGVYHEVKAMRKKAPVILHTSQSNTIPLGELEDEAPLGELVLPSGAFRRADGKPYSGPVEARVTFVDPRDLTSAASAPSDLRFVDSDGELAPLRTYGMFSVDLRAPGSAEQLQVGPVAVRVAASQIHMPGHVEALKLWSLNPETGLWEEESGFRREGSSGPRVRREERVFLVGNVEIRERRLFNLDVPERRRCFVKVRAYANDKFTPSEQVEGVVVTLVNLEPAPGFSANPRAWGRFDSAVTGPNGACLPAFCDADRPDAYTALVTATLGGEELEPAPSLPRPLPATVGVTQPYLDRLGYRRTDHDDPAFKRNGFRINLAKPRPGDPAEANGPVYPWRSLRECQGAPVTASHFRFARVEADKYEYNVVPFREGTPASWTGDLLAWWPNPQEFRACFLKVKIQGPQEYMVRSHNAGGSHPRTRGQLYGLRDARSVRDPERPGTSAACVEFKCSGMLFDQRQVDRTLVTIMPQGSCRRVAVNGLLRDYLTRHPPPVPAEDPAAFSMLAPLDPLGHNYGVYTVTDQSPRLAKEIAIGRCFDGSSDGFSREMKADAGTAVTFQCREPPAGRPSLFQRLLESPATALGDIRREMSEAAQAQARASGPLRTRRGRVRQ
Description: BIACORE SPR, Fab at 62.5, 125, 250, 500 and 1000 nM on human CILP2 protein; Rmax.

Experiment [3] addresses T3, Human CD122 His tagged. As to the kind of experiment: Biacore SPR, Fab.
Experiment [4] addresses T2, Rhesus CD122 His tag. Description: Biacore SPR, Fab.
Experiment [5] deals with T3, Human CD122 His tagged. Description: Biacore, Fab affinity and kinetics on hCD122.

T1 sequence (Q9UMX5 32-172 limits assumed): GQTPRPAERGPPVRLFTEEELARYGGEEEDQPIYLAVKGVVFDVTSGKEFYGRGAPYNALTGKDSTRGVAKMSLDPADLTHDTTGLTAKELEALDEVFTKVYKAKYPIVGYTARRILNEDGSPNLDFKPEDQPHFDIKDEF

B1: VillFab-1 (Fab, V domains shown)
VH: EVQLLESGGGLVQPGGSLRLSCAASGFSVTSYGVHWIRQAPGKGLEWLGVIWSGGSTDYNAAFISRLTISKDNSKNTVYFQMNSLQAEDTAIYYCARAGDYNYDGFAYWGQGTLVTVSS
VL: DIVLTQSPSSLSASVGDRVTITCSGSSSVSFMYWYQQRPGKAPRLLIYDTSNLASGVPSRFSGSGSGTSYTFTISSLQPEDIATYYCQQWSTYPLTFGQGTKVEVK
notes: also called Villmab-1 in human Fab format
As usually defined, the Kd is the equilibrium constant for the complex coming apart. Low readings indicate a tighter complex, high ones a looser complex. What is called koff is a measure of how fast the partners let go of each other. A low value points to a long-lived complex. By kon is commonly meant the second-order rate constant of association. Read a high kon as faster complex formation. Consider B1, for which the binding result with Human neudesin protein and with Human CILP2 protein was “no binding (tested: 1000 nM)” in each case. Further, the Kd with Rhesus CD122 His tag [1] is 12 nM; in the experiment with Human CD122 His tagged [2] it was 16.5 nM; with Human CD122 His tagged [3], 12.4 nM; in the experiment with Rhesus CD122 His tag [4], 10.2 nM; in the experiment with Human CD122 His tagged [5], 12.4 nM. Moreover, the koff in the experiment with Rhesus CD122 His tag [1] was 0.00279 s⁻¹; in the experiment with Human CD122 His tagged [2], 0.00372 s⁻¹; in the experiment with Human CD122 His tagged [5], 0.0034 s⁻¹. Further, the kon with Rhesus CD122 His tag [1] was determined as 233000 M⁻¹ s⁻¹; with Human CD122 His tagged [2], 226000 M⁻¹ s⁻¹; with Human CD122 His tagged [5] it was 270000 M⁻¹ s⁻¹.
